# Assay results from publication PMC9482650, “Quantitative fragmentomics allow affinity mapping of interactomes” (Nature Communications, 2022).
# T1: SHANK1, Q9Y566
# T1 sequence (Q9Y566 658-767, limits assumed, looked up): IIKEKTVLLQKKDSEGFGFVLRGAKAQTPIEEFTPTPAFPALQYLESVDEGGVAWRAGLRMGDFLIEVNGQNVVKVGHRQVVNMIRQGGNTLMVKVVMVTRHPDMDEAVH
# T2: LNX2_3, Q8N448
# T2 sequence (Q8N448 463-564, limits assumed, looked up): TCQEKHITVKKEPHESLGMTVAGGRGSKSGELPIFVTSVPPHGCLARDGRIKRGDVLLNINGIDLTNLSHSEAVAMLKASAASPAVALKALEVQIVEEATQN
# T3: LRRC7, Q96NW7
# T3 sequence (Q96NW7 1440-1537, limits assumed, looked up): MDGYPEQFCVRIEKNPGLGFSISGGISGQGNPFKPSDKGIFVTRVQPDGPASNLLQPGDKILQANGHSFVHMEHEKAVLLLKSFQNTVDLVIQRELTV
# T4: PDZRN3_1, Q9UPQ7
# T4 sequence (Q9UPQ7 244-349, limits assumed, looked up): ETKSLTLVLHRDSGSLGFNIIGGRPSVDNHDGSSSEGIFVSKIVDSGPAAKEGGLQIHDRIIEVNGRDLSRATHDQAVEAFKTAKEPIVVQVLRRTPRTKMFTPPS
# T5: SIPA1L2, Q9P2F8
# T5 sequence (Q9P2F8 945-1036, limits assumed, looked up): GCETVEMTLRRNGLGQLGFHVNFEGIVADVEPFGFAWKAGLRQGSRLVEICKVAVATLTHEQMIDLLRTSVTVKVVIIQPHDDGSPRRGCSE
# T6: APBA3_1, O96018
# T6 sequence (O96018 389-490, limits assumed, looked up): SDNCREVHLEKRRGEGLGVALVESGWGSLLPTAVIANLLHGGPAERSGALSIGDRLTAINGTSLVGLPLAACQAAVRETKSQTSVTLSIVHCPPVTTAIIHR
# T7: PDZD2_2, O15018
# T7 sequence (O15018 329-429, limits assumed, looked up): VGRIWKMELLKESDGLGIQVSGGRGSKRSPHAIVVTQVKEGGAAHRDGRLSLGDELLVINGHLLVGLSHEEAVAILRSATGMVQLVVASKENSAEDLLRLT
# T8: NHERF3_4, Q5T2W1
# T8 sequence (Q5T2W1 373-468, limits assumed, looked up): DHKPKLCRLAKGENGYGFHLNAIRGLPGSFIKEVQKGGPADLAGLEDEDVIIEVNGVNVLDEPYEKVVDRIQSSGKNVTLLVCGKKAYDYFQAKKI
# T9: DLG3_3, Q92796
# T9 sequence (Q92796 374-475, limits assumed, looked up): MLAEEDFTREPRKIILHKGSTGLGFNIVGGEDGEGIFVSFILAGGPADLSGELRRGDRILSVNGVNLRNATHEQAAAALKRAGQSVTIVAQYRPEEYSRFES
# B1: VAC14, Q08AM6 (peptide)
# chain: GDHLDRRVVL
# B2: NDE1, Q9NXR1;Q9NXR1-2 (peptide)
# chain: KSTTRSSSSC
# B3: LSM14A, Q8ND56;Q8ND56-2 (peptide)
# chain: EYRKDNKVAA
# B4: PTEN_Ac, P60484 (peptide)
# chain: DEDQHTQITKV
# Experiments:
# Assay in all cases: holdup assay
# Set-up in all cases: key: below the threshold = too weak to quantify, mostly under pKd 3.1 to 4
# AHNAK1, Q09666 = target: AHNAK1, Q09666
# SHANK1, Q9Y566 = target: T1, SHANK1, Q9Y566
# FRMPD2_3, Q68DX3 = target: FRMPD2_3, Q68DX3
# TJP1_3, Q07157 = target: TJP1_3, Q07157
# LNX2_3, Q8N448 = target: T2, LNX2_3, Q8N448
# FRMPD4, Q14CM0 = target: FRMPD4, Q14CM0
# LNX1_3, Q8TBB1 = target: LNX1_3, Q8TBB1
# IL16_3, Q14005 = target: IL16_3, Q14005
# LIMK2, P53671 = target: LIMK2, P53671
# LRRC7, Q96NW7 = target: T3, LRRC7, Q96NW7
# DLG4_3, P78352 = target: DLG4_3, P78352
# Inadl_9, Q8NI35 = target: Inadl_9, Q8NI35
# MAGI1_2, Q96QZ7 = target: MAGI1_2, Q96QZ7
# PDZRN3_1, Q9UPQ7 = target: T4, PDZRN3_1, Q9UPQ7
# Inadl_4, Q8NI35 = target: Inadl_4, Q8NI35
# SNX27, Q96L92 = target: SNX27, Q96L92
# SIPA1L2, Q9P2F8 = target: T5, SIPA1L2, Q9P2F8
# GIPC2, Q8TF65 = conditions: plain residues with an end cap or a label only (N-terminal biotin on a linker: ado-ado)
# Inadl_1, Q8NI35 = target: Inadl_1, Q8NI35
# GRID2IP_2, A4D2P6 = target: GRID2IP_2, A4D2P6
# Inadl_5, Q8NI35 = target: Inadl_5, Q8NI35
# APBA3_1, O96018 = target: T6, APBA3_1, O96018
# NHERF4_4, Q86UT5 = target: NHERF4_4, Q86UT5
# NOS1, P29475 = target: NOS1, P29475
# PDZD2_2, O15018 = target: T7, PDZD2_2, O15018
# NHERF3_4, Q5T2W1 = target: T8, NHERF3_4, Q5T2W1
# DLG3_3, Q92796 = target: T9, DLG3_3, Q92796
# GORASP1, Q9BQQ3 = target: GORASP1, Q9BQQ3
# DLG5_1, Q8TDM6 = target: DLG5_1, Q8TDM6
# [1] = plain residues with an end cap or a label only (N-terminal biotin on a linker: ado-ado)
# [2] = modified: acetyl on K at position -1 from the C-terminal residue
# Sequence of DLG4_3, P78352 (P78352 306-403): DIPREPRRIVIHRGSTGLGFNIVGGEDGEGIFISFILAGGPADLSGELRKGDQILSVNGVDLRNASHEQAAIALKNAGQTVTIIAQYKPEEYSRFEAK
# Sequence of Inadl_5, Q8NI35 (Q8NI35 673-780): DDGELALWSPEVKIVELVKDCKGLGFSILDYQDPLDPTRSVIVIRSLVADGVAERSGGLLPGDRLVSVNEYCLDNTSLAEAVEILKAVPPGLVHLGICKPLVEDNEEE
# Sequence of Inadl_9, Q8NI35 (Q8NI35 1530-1615): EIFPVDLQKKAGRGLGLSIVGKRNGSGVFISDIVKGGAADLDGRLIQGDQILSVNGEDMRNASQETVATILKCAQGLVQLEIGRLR
# Sequence of GRID2IP_2, A4D2P6 (A4D2P6 272-370): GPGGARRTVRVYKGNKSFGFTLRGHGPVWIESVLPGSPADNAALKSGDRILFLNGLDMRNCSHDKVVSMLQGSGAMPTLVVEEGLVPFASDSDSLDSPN
# Sequence of LNX1_3, Q8TBB1 (Q8TBB1 500-596): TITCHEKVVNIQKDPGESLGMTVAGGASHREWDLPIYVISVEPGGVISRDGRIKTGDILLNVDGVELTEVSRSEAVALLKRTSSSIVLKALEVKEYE
# Sequence of DLG5_1, Q8TDM6 (Q8TDM6 617-713): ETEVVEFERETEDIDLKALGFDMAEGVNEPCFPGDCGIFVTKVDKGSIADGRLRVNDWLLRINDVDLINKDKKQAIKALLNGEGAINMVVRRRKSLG
# Sequence of AHNAK1, Q09666 (Q09666 4-100): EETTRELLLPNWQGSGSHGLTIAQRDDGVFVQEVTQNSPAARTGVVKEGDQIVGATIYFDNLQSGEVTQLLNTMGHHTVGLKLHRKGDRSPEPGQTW
# Sequence of NOS1, P29475 (P29475 9-101): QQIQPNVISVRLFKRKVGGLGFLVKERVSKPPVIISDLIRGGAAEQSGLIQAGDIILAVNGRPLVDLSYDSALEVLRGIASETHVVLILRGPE
# Sequence of MAGI1_2, Q96QZ7 (Q96QZ7 456-580): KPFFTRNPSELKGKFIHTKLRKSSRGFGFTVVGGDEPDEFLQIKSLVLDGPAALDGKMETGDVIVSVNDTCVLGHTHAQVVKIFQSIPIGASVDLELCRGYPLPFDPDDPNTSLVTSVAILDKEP
# Sequence of LIMK2, P53671 (P53671 143-248): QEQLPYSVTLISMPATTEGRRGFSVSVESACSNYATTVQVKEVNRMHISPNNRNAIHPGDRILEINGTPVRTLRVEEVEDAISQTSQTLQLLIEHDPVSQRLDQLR
# Sequence of FRMPD2_3, Q68DX3 (Q68DX3 1073-1166): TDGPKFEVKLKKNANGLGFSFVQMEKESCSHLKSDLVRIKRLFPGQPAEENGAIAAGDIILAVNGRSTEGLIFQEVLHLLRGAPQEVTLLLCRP
# Sequence of Inadl_4, Q8NI35 (Q8NI35 547-651): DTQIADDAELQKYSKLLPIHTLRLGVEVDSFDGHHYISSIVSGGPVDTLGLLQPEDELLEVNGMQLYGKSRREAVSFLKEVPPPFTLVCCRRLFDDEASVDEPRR
# Sequence of FRMPD4, Q14CM0 (Q14CM0 67-160): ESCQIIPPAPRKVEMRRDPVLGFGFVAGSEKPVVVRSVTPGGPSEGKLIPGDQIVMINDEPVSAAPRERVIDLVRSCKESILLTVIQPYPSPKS
# Sequence of IL16_3, Q14005 (Q14005 1107-1207): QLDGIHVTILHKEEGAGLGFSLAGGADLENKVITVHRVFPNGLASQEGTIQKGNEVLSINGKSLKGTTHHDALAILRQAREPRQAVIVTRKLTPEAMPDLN
# Sequence of TJP1_3, Q07157 (Q07157 416-512): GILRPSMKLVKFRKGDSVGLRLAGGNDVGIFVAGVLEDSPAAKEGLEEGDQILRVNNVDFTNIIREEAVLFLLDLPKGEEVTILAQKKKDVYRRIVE
# Sequence of GORASP1, Q9BQQ3 (Q9BQQ3 1-208): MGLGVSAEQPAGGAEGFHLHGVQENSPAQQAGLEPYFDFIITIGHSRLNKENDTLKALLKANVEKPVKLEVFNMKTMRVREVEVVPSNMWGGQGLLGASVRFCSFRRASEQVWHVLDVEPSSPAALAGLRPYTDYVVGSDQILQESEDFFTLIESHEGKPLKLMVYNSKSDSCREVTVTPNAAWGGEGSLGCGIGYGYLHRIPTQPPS
# Sequence of NHERF4_4, Q86UT5 (Q86UT5 464-550): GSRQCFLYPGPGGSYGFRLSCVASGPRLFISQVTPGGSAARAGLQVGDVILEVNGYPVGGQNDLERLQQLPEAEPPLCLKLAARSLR
# Sequence of Inadl_1, Q8NI35 (Q8NI35 113-229): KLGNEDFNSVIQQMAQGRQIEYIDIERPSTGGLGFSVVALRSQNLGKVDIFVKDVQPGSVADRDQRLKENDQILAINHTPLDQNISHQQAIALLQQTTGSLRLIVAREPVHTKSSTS
# Sequence of GIPC2, Q8TF65 (Q8TF65 112-203): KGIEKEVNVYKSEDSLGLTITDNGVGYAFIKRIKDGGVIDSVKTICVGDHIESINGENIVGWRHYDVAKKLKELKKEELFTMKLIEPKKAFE
binder,measurement,setting,value
B1,pKd,"AHNAK1, Q09666; [1]",below the threshold
same,pKd,"SHANK1, Q9Y566; [1]",below the threshold
same,pKd,"FRMPD2_3, Q68DX3; [1]",below the threshold
same,pKd,"TJP1_3, Q07157; [1]",below the threshold
same,pKd,"LNX2_3, Q8N448; [1]",below the threshold
same,pKd,"FRMPD4, Q14CM0; [1]",3.82
same,pKd,"LNX1_3, Q8TBB1; [1]",below the threshold
same,pKd,"IL16_3, Q14005; [1]",3.58
same,pKd,"LIMK2, P53671; [1]",below the threshold
same,pKd,"LRRC7, Q96NW7; [1]",below the threshold
same,pKd,"DLG4_3, P78352; [1]",below the threshold
same,pKd,"Inadl_9, Q8NI35; [1]",below the threshold
same,pKd,"MAGI1_2, Q96QZ7; [1]",3.51
same,pKd,"PDZRN3_1, Q9UPQ7; [1]",below the threshold
same,pKd,"Inadl_4, Q8NI35; [1]",below the threshold
same,pKd,"SNX27, Q96L92; [1]",below the threshold
same,pKd,"SIPA1L2, Q9P2F8; [1]",below the threshold
same,pKd,"GIPC2, Q8TF65",below the threshold
same,pKd,"Inadl_1, Q8NI35; [1]",below the threshold
same,pKd,"GRID2IP_2, A4D2P6; [1]",below the threshold
same,pKd,"Inadl_5, Q8NI35; [1]",3.48
same,pKd,"APBA3_1, O96018; [1]",below the threshold
same,pKd,"NHERF4_4, Q86UT5; [1]",3.78
same,pKd,"NOS1, P29475; [1]",below the threshold
same,pKd,"PDZD2_2, O15018; [1]",below the threshold
same,pKd,"NHERF3_4, Q5T2W1; [1]",below the threshold
same,pKd,"DLG3_3, Q92796; [1]",below the threshold
same,pKd,"GORASP1, Q9BQQ3; [1]",3.77
same,pKd,"DLG5_1, Q8TDM6; [1]",below the threshold
B2,pKd,"AHNAK1, Q09666; [1]",below the threshold
same,pKd,"SHANK1, Q9Y566; [1]",below the threshold
same,pKd,"FRMPD2_3, Q68DX3; [1]",below the threshold
same,pKd,"TJP1_3, Q07157; [1]",below the threshold
same,pKd,"LNX2_3, Q8N448; [1]",below the threshold
same,pKd,"FRMPD4, Q14CM0; [1]",below the threshold
same,pKd,"LNX1_3, Q8TBB1; [1]",below the threshold
same,pKd,"IL16_3, Q14005; [1]",below the threshold
same,pKd,"LIMK2, P53671; [1]",below the threshold
same,pKd,"LRRC7, Q96NW7; [1]",below the threshold
same,pKd,"DLG4_3, P78352; [1]",below the threshold
same,pKd,"Inadl_9, Q8NI35; [1]",below the threshold
same,pKd,"PDZRN3_1, Q9UPQ7; [1]",below the threshold
same,pKd,"Inadl_4, Q8NI35; [1]",below the threshold
same,pKd,"SNX27, Q96L92; [1]",below the threshold
same,pKd,"SIPA1L2, Q9P2F8; [1]",below the threshold
same,pKd,"Inadl_1, Q8NI35; [1]",below the threshold
same,pKd,"Inadl_5, Q8NI35; [1]",below the threshold
same,pKd,"APBA3_1, O96018; [1]",below the threshold
same,pKd,"NHERF4_4, Q86UT5; [1]",below the threshold
same,pKd,"NOS1, P29475; [1]",below the threshold
same,pKd,"PDZD2_2, O15018; [1]",4.09
same,pKd,"NHERF3_4, Q5T2W1; [1]",below the threshold
same,pKd,"DLG3_3, Q92796; [1]",below the threshold
same,pKd,"GORASP1, Q9BQQ3; [1]",below the threshold
same,pKd,"DLG5_1, Q8TDM6; [1]",below the threshold
B3,pKd,"AHNAK1, Q09666; [1]",below the threshold
same,pKd,"FRMPD2_3, Q68DX3; [1]",below the threshold
same,pKd,"LNX2_3, Q8N448; [1]",below the threshold
same,pKd,"FRMPD4, Q14CM0; [1]",below the threshold
same,pKd,"LNX1_3, Q8TBB1; [1]",below the threshold
same,pKd,"LIMK2, P53671; [1]",below the threshold
same,pKd,"LRRC7, Q96NW7; [1]",below the threshold
same,pKd,"DLG4_3, P78352; [1]",below the threshold
same,pKd,"Inadl_9, Q8NI35; [1]",below the threshold
same,pKd,"MAGI1_2, Q96QZ7; [1]",below the threshold
same,pKd,"PDZRN3_1, Q9UPQ7; [1]",below the threshold
same,pKd,"Inadl_4, Q8NI35; [1]",below the threshold
same,pKd,"SNX27, Q96L92; [1]",below the threshold
same,pKd,"SIPA1L2, Q9P2F8; [1]",below the threshold
same,pKd,"GIPC2, Q8TF65",below the threshold
same,pKd,"Inadl_1, Q8NI35; [1]",below the threshold
same,pKd,"GRID2IP_2, A4D2P6; [1]",below the threshold
same,pKd,"Inadl_5, Q8NI35; [1]",below the threshold
same,pKd,"APBA3_1, O96018; [1]",below the threshold
same,pKd,"NHERF4_4, Q86UT5; [1]",below the threshold
same,pKd,"NOS1, P29475; [1]",below the threshold
same,pKd,"PDZD2_2, O15018; [1]",below the threshold
same,pKd,"NHERF3_4, Q5T2W1; [1]",below the threshold
same,pKd,"DLG3_3, Q92796; [1]",below the threshold
same,pKd,"GORASP1, Q9BQQ3; [1]",below the threshold
same,pKd,"DLG5_1, Q8TDM6; [1]",below the threshold
B4,pKd,"AHNAK1, Q09666; [2]",below the threshold
same,pKd,"SHANK1, Q9Y566; [2]",4.18
same,pKd,"FRMPD2_3, Q68DX3; [2]",below the threshold
same,pKd,"TJP1_3, Q07157; [2]",below the threshold
same,pKd,"LNX2_3, Q8N448; [2]",below the threshold
same,pKd,"FRMPD4, Q14CM0; [2]",below the threshold
same,pKd,"LNX1_3, Q8TBB1; [2]",below the threshold
same,pKd,"IL16_3, Q14005; [2]",below the threshold
same,pKd,"LIMK2, P53671; [2]",below the threshold
same,pKd,"LRRC7, Q96NW7; [2]",below the threshold
same,pKd,"DLG4_3, P78352; [2]",below the threshold
same,pKd,"Inadl_9, Q8NI35; [2]",3.67
same,pKd,"MAGI1_2, Q96QZ7; [2]",3.69
same,pKd,"PDZRN3_1, Q9UPQ7; [2]",below the threshold
same,pKd,"Inadl_4, Q8NI35; [2]",below the threshold
same,pKd,"SNX27, Q96L92; [2]",5.32
same,pKd,"SIPA1L2, Q9P2F8; [2]",below the threshold
same,pKd,"Inadl_1, Q8NI35; [2]",3.85
same,pKd,"GRID2IP_2, A4D2P6; [2]",4.39
same,pKd,"Inadl_5, Q8NI35; [2]",below the threshold
same,pKd,"APBA3_1, O96018; [2]",below the threshold
same,pKd,"NHERF4_4, Q86UT5; [2]",below the threshold
same,pKd,"NOS1, P29475; [2]",3.81
same,pKd,"PDZD2_2, O15018; [2]",4.22
same,pKd,"NHERF3_4, Q5T2W1; [2]",below the threshold
same,pKd,"DLG3_3, Q92796; [2]",below the threshold
same,pKd,"GORASP1, Q9BQQ3; [2]",4.04
same,pKd,"DLG5_1, Q8TDM6; [2]",below the threshold
